Laboratory results from article PMC1769423, “Different Quaternary Structures of Human RECQ1 Are Associated with Its Dual Enzymatic Activity” (PLoS Biology, 2007).
Substitutions are numbered along the chain they refer to. Names may count otherwise.

B1: RECQ1(K119R) (human RECQ1, ATPase-deficient Walker A mutant) (enzyme, UniProt P46063 1-649, looked up)
chain: MASVSALTEELDSITSELHAVEIQIQELTERQQELIQKKKVLTKKIKQCLEDSDAGASNEYDSSPAAWNKEDFPWSGKVKDILQNVFKLEKFRPLQLETINVTMAGKEVFLVMPTGGGRSLCYQLPALCSDGFTLVICPLISLMEDQLMVLKQLGISATMLNASSSKEHVKWVHAEMVNKNSELKLIYVTPEKIAKSKMFMSRLEKAYEARRFTRIAVDEVHCCSQWGHDFRPDYKALGILKRQFPNASLIGLTATATNHVLTDAQKILCIEKCFTFTASFNRPNLYYEVRQKPSNTEDFIEDIVKLINGRYKGQSGIIYCFSQKDSEQVTVSLQNLGIHAGAYHANLEPEDKTTVHRKWSANEIQVVVATVAFGMGIDKPDVRFVIHHSMSKSMENYYQESGRAGRDDMKADCILYYGFGDIFRISSMVVMENVGQQKLYEMVSYCQNISKCRRVLMAQHFDEVWNSEACNKMCDNCCKDSAFERKNITEYCRDLIKILKQAEELNEKLTPLKLIDSWMGKGAAKLRVAGVVAPTLPREDLEKIIAHFLIQQYLKEDYSFTAYATISYLKIGPKANLLNNEAHAITMQVTKSTQNSFRAESSQTCHSEQGDKKMEEKNSGNFQKKAANMLQQSGSKNTGAKKRKIDDA
notes: human RECQ1 helicase (alias RECQL), the 649-amino acid variant, with K119R in ATPase motif I (Walker A box); also called RECQ1 K119R mutant; His6-K119R RECQ1 mutant; source: baculovirus/Sf9 cells, purified; not shown: His6, N-terminal, kept
B2: untagged RECQ1 (utRECQ1; human RECQ1 helicase after removal of the N-terminal His6-tag) (enzyme, UniProt P46063 1-649, looked up)
chain: B1 chain with R119K
notes: human RECQ1 helicase (alias RECQL), the 649-amino acid variant; also called untagged wild-type RECQ1; source: baculovirus/Sf9 cells, purified; not shown: His6, N-terminal, cleaved

Assays:
[1] = target: the molecule itself; assay: negative-stain transmission electron microscopy; as a2 but with 2-5 mM ATP or ATPγS, with or without oligo(dT)30
[2] = target: the molecule itself; assay: SEC; Superdex200 HR 10/30, 20 mM Tris pH 7.5, 150 mM KCl, 1 mM DTT; about 40 ug RECQ1 loaded at 1 uM; alone, with oligo(dT)40 or oligo(dT)30 and/or 1 mM ATP or ATPγS in the elution buffer; also 100-500 mM salt and 0.1-35 uM protein

Protein	binding result [1]	binding result [2]
B1	binds	
B2		binds
